This is an account of results in the supplement of paper PMC9170038.

The data set relates to MS2 coat protein. Description: apparent KD of MS2 coat protein; designed switch direction (-1 OFF switch, 1 ON switch): -1; higher = weaker reporter binding. The essentials:
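Designed RNA switches were transcribed on Illumina chips by stalled E. coli RNA polymerase and titrated with SNAP-549-labelled MS2 coat protein from 0.7 or 1.5 nM, doubling to 3 µM. Step length ran from 0.8–1.5 h at the lowest concentration to 10–20 min at the highest. The apparent KD is the median over clusters for each design, from curve-fitted normalised cluster fluorescence.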

[1] abbreviates: Eterna round: R95, input ligand: microRNA oligo, concentration not stated.
Where [2] appears, read: Eterna round: R95, input ligand: FMN 200 uM.
[3] abbreviates: Eterna round: R95, input ligand: none.
[4] abbreviates: input ligand: microRNA oligo, concentration not stated.

With “GCUGGUCAAGGAUAUACAUGAGGAUCACCCAUGUGAUUAGCAGUCCUCGGACUGCAAUGUAGAAGGUGACCAGC [E3/2-C1] (Eterna round: R97, puzzle: Exclusion 3)”, the “apparent KD of MS2 coat protein” value reads like this: (input ligand: FMN 200 uM) 1410 nM; (input ligand: none) 308 nM.
In the same order, the values of “GCUGGUCGAGGAUAUGCAUUCGUGCUUCGGCACGUAAGGUCACAUGAGGAUCACCCAUGUAGAAGGUGACCAGC [E2/6-B1] (Eterna round: R97, puzzle: Exclusion 2)” are 23.9 nM and 17.8 nM.
Turning to “GCUGUAGAAGGAUAUGCUUCGACUCACAUGAGGAUCACCCAUGUCUUCGUGCAGUCGUCUGCAGAAGGUCUCCAGU [EX5 C.8] (Eterna round: R97, puzzle: Exclusion 5)”, the “apparent KD of MS2 coat protein” value (input ligand: FMN 200 uM) was found to be 1820 nM and the “apparent KD of MS2 coat protein” value (input ligand: none) stood at 504 nM.
As to “GCUUCCCAUGUGAGGAUAUGUAGGGUUAACCCGAGGCAGAAGGCACAUGAGGAUCACCCAUGUUAAAACUUCUA [Xecera] (puzzle: Brourd's mod of Exclusion 4)”, under setting [1], the “apparent KD of MS2 coat protein” value is 30.8 nM.
For the sequence “GCUUGCGAAGUAAGGAUAUCGGUCCGAAAGGACUACGAGAAGGUACAUGAGGAUCACCCAUGUGCGAGCAGAAU [Mod of Zala 24 - Jieux - Brourd's mod of Exclusion 4] (Eterna round: R97, puzzle: Brourd's mod of Exclusion 4)”, the “apparent KD of MS2 coat protein” value runs as follows: (input ligand: FMN 200 uM) 19.6 nM; (input ligand: none) 23 nM.
Consider “GCUUGGCGAGGAUAUACAUGAGGAUCACCCAUGUGAGAGAAGAAAGUGAGGAAGAAAAGUAGAAGGCGCUGAGG [Mat - Exclusion 3 - Mod of Salish D61] (puzzle: Exclusion 3)”, for which the “apparent KD of MS2 coat protein” value was determined as 372 nM under setting [2], 56.4 nM under setting [1] and 63 nM under setting [3].
For “GCUUGUAGAGGAUAUACAAGGGCCCGAGCGGCGAGAGCCGCACAUGAGGAUCACCCAUGUAGAAGGCUACUAUA [JL-ex2-4.21 ViennaUCT mod] (Eterna round: R97, puzzle: Exclusion 2)”, the “apparent KD of MS2 coat protein” value came to 201 nM (input ligand: FMN 200 uM) and 237 nM (input ligand: none).
Regarding “GCUUUUCUUUUCCUUUCUUACAUGAGGAUCACCCAUGUUUCUUGUCGUGCUCGCGUUGUUCGUCUGUCUGUCUGUUG [salish99_TOv1_r3_081] (puzzle: Sensor v3, turn-off variant 1)”, the “apparent KD of MS2 coat protein” value under setting [2] turned out to be 37.4 nM, the “apparent KD of MS2 coat protein” value under setting [1] worked out at 35.5 nM and the “apparent KD of MS2 coat protein” value under setting [3] was found to be 47.6 nM.
Take “GGAAAACGCUGAGGAUAUGGAAGGAAAGGAAGACCAGAAGGCAGGGUCACACAACAUGAGGAUCACCCAUGUGUGUGUAGCGGA [exng1 ex3] (Eterna round: R96, puzzle: Exclusion NG 1)”: the “apparent KD of MS2 coat protein” value amounted to 9.75 nM (input ligand: FMN 200 uM), 10.2 nM under setting [4] and 12.7 nM (input ligand: none).
For the sequence “GGAACGACAGGAUAUACAUGAGGAUCACCCAUGUAAAGAAGAGUAAAAUGUGAAAGCGGUAGAAGGGUCAAGAA [AK-MS2ROC-r4-exclusion3-6] (Eterna round: R97, puzzle: Exclusion 3)”, the “apparent KD of MS2 coat protein” value by setting is: (input ligand: FMN 200 uM) 42.3 nM; (input ligand: none) 43.9 nM.
Take “GGAAGAAUGAGUAGUCCUCAUUGAAGAGAAUAGUAAGAAACAUGAGGAUCACCCAUGUAAGAACAAGCUUUUGCUCA [JR_Sv3TOV2_Sub003] (puzzle: Sensor v3, turn-off variant 2)”: the “apparent KD of MS2 coat protein” value by setting is: under setting [2], 227 nM; under setting [1], 85 nM; under setting [3], 179 nM.
For the sequence “GGAAGAGAGAUAGGAUAUCAGAGGAAGAUGGUGAGAGAGACAUGAGGAUCACCCAUGUGAAGGAAUGAGAAGGGUCAGAAGGAA [EXNG2 V2 h] (Eterna round: R96, puzzle: Exclusion NG 2)”, the “apparent KD of MS2 coat protein” value (input ligand: FMN 200 uM) is 130 nM, the “apparent KD of MS2 coat protein” value under setting [4] turned out to be 133 nM and the “apparent KD of MS2 coat protein” value (input ligand: none) was found to be 101 nM.
On to “GGAAGGCGAGGAUAUACAAUGCCGGAAACGGCAGGCGUGAGACAUGAGGAUCACCCAUGUAGAAGGCGCGGAGA [AK-MS2ROC-r4-exclusion2-15] (Eterna round: R97, puzzle: Exclusion 2)”, for which the “apparent KD of MS2 coat protein” value is 101 nM (input ligand: FMN 200 uM) and 105 nM (input ligand: none).
Turning to “GGAAGUAGAAACCGAUCCUACAUGAGGAUCACCCAUGUAGCAAGACGUGCACGCGAAGCUCGUCAGACUACCAGAAU [salish99_TOv1_r3_010] (puzzle: Sensor v3, turn-off variant 1)”, the “apparent KD of MS2 coat protein” value is, setting by setting: under setting [2], 341 nM; under setting [1], 268 nM; under setting [3], 286 nM.
In the case of “GGACAUAAAGUCAGGAUAUUAAGGCGACCACGCGAUGAGAAGGGACAUGAGGAUCACCCAUGUGAUUCUCAUCA [Ingebive] (Eterna round: R97, puzzle: Brourd's mod of Exclusion 4)”, the “apparent KD of MS2 coat protein” value runs as follows: (input ligand: FMN 200 uM) 74.1 nM; (input ligand: none) 72.6 nM.
The corresponding values for “GGACGGAAAGUGAGGAUAUGCUCUACCUCGGUAGAGCAGAAGGCACAUGAGGAUCACCCAUGUGAAAACUGUUC [Omei Ex4B B30] (Eterna round: R97, puzzle: Brourd's mod of Exclusion 4)” are 27.9 nM and 15.2 nM.
The corresponding values for “GGACGGUUAGUCAGGAUAUGCUCUACCUCGGUAGAGCAGAAGGGACAUGAGGAUCACCCAUGUGAAAACUGUUC [Omei Ex4B B37] (Eterna round: R97, puzzle: Brourd's mod of Exclusion 4)” are 30.2 nM and 24.9 nM.
The corresponding values for “GGAGAGAGAGGAUAUGGAGGUUGGAACAUGAGGAUCACCCAUGUUAAACCUCAUGACCGACUAGAAGGCUCAGUCC [AK-MS2ROC-r4-exclusion5-9.1] (Eterna round: R97, puzzle: Exclusion 5)” are 17.8 nM and 18.9 nM.
“GGAGGAAGAGAGGAUAUGCGCGCAAGGAGCUUAGCAGAAGGUUCAACAUGAGGAUCACCCAUGUAUGAUCCUCA [AK-MS2ROC-r4-exclusion6-5] (Eterna round: R97, puzzle: Exclusion 6)”: the “apparent KD of MS2 coat protein” value (input ligand: FMN 200 uM) amounted to 341 nM and the “apparent KD of MS2 coat protein” value (input ligand: none) was determined as 318 nM.
In the case of “GGAUAAAAGUGAGGAUAUGAGGAGAGAGAGAGAUCAGAAGGCACACAUGAGGAUCACCCAUGUGAGUUCUCGAUAAGAAACACG [Prohibition 55 - Jieux - Exclusion NG 1] (Eterna round: R96, puzzle: Exclusion NG 1)”, the “apparent KD of MS2 coat protein” value runs as follows: (input ligand: FMN 200 uM) 14.3 nM; under setting [4], 13.2 nM; (input ligand: none) 15.9 nM.
On to “GGAUCACGAGGAUAUCGAUUUUAGUACAUGAGGAUCACCCAUGUUGUCCAGGUCUCGAUUCGAGAAGGCGUGAUUC [LRO-Ex5-05] (puzzle: Exclusion 5)”, for which the “apparent KD of MS2 coat protein” value under setting [1] is 34.5 nM.
For the sequence “GGAUCGAAUGUGAGGAUAUGCUGGUCCUUGGAUCAGCAGAAGGCACAUGAGGAUCACCCAUGUGGUUCCGAUCC (Eterna round: R97, puzzle: Brourd's mod of Exclusion 4)”, the “apparent KD of MS2 coat protein” value reads like this: (input ligand: FMN 200 uM) 161 nM; (input ligand: none) 876 nM.
The corresponding values for “GGAUCGAGUGUGAGGAUAUACCUAUGGAAACAUAGGUAGAAGGCACAUGAGGAUCACCCAUGUUCCAACGGUCC [Mat - Exclusion 4 - Eli Mod - D11] (Eterna round: R97, puzzle: Brourd's mod of Exclusion 4)” are 715 nM and 90.6 nM.
In the same order, the values of “GGAUCGAGUGUGAGGAUAUGCAGGUCCUUGGAUCUGCAGAAGGCACAUGAGGAUCACCCAUGUGAUCAAGAUCC [Mat - Exclusion 4 - Eli Mod - D47] (Eterna round: R97, puzzle: Brourd's mod of Exclusion 4)” are 36.6 nM and 777 nM.
In the case of “GGAUCGAGUGUGAGGAUAUGCUGGUCCUUGGAUCAGCAGAAGGCACAUGAGGAUCACCCAUGUGAUACCGAUCC [Eli bmx4 4.67] (Eterna round: R97, puzzle: Brourd's mod of Exclusion 4)”, the “apparent KD of MS2 coat protein” value by setting is: (input ligand: FMN 200 uM) 736 nM; (input ligand: none) 71 nM.
“GGAUCGUAUGUCAGGAUAUACCACUGGAUACAGUGGUAGAAGGGACAUGAGGAUCACCCAUGUCUUAUCGAUCC [Fiskers BMX 4 - 52] (puzzle: Brourd's mod of Exclusion 4)”: the “apparent KD of MS2 coat protein” value under setting [1] was found to be 14.3 nM.
“GGCACACAUGAGGAUCACCCAUGUGAGGAUAUGUUAGUUUCGGCCAAAGCCGAAAUUAACAGAAGGCACAUGCC [JR_Exclusion1_Sub021] (puzzle: Exclusion 1)”: under setting [1], the “apparent KD of MS2 coat protein” value came out at 13.3 nM.
The same measure, in the same setting: then “GGCAGCUCAGGAUAUAGUUAAAACGACAUGAGGAUCACCCAUGUGACUGAUAUGCGGCGCCUAGAAGGGAGGUGCC [Xeusisso] (puzzle: Exclusion 5)”, with 14.6 nM.
On to “GGCAUCGGAGGAUAUACUUAUGGUGAUGCCCGAAGCUUUCUACUUGAGGAUCACCCAAGUAGAAGGCCGAUGCC [jl-ex2.4.79 ViennaUCT mod] (Eterna round: R97, puzzle: Exclusion 2)”, for which the “apparent KD of MS2 coat protein” value runs as follows: (input ligand: FMN 200 uM) 11.2 nM; (input ligand: none) 12.7 nM.
For the sequence “GGCAUGUAAGGAUAUGCCACGCAGUCCUUUGGGCUGCGUAAGCAGAAGGUACAUGAGGAUCACCCAUGUGAUAA [jl-ex4-4.56 ViennaUCT mod] (Eterna round: R97, puzzle: Exclusion 4)”, the “apparent KD of MS2 coat protein” value worked out at 865 nM (input ligand: FMN 200 uM) and 591 nM (input ligand: none).
On to “GGCCCGGGAGGAUAUACAUGAGGAUCACCCAUGUUGAGCUUGAGGAUCUUCGAGUUCGGUAGAAGGCCCGGGCC [-35.1, -32.9 kcal, 22% A, 1, 0] (Eterna round: R97, puzzle: Exclusion 3)”, for which the “apparent KD of MS2 coat protein” value is, setting by setting: (input ligand: FMN 200 uM) 201 nM; (input ligand: none) 27.2 nM.
